In patent US7163921 (dated 2007):
Numbered stars: 1 amine (or outer) side, 2 acyl side, 3 side chain; on linkers, the order of the positions; unused ones are H or OH. Square brackets hold non-standard residues; d marks the D form. * marks the point of attachment. X1 = N‑((R)-1-(2-naphthyl)ethyl)amide, C[C@@H](N*)c1ccc2ccccc2c1; 3,5‑dimethyl‑Tyr = Cc1cc(C[C@H](N[*:1])C(=O)[*:2])cc(C)c1O[*:3]; 6‑guanidinohexyl = N=C(N)NCCCCCC*

How the values were obtained:
mu opioid receptor = mu opioid receptor (human, UniProt P35372); test: competition, [3H]diprenorphine, 25C, pH 7.8
Sequence of mu opioid receptor (P35372 whole entry): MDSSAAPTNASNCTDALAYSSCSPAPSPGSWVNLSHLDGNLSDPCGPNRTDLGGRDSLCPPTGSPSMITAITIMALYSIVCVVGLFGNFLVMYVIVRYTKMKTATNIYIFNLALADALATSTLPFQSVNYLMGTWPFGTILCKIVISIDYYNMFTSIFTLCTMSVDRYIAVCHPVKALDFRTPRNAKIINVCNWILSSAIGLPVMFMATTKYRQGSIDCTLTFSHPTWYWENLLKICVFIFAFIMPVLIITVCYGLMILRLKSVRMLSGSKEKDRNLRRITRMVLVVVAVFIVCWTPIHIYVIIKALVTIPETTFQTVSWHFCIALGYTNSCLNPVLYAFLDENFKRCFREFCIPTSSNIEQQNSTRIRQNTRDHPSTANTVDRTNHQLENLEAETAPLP

nociceptin receptor = nociceptin receptor (human, UniProt P41146); test: competition, [3H]nociceptin, 25C, pH 7.8
Sequence of nociceptin receptor (P41146 whole entry): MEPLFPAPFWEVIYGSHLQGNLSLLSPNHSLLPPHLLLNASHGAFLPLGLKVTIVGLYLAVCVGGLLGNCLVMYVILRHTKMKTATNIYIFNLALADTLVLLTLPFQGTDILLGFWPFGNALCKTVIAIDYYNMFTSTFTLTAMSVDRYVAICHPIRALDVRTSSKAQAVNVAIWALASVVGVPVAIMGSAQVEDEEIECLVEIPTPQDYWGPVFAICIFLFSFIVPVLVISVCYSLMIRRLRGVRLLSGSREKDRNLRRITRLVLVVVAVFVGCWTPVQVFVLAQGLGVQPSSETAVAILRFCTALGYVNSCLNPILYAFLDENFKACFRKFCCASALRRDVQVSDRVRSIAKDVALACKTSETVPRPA

B1: Example 1 (N-α-6-guanidinohexyl-Tyr-Tyr-Arg-Trp-NH2) (peptide)
chain: {6‑guanidinohexyl}-YYRW-NH2
SMILES: N=C(N)NCCCCCCN[C@@H](Cc1ccc(O)cc1)C(=O)N[C@@H](Cc1ccc(O)cc1)C(=O)N[C@@H](CCCNC(=N)N)C(=O)N[C@@H](Cc1c[nH]c2ccccc12)C(N)=O
Work on B1 yielded a Ki (mu opioid receptor) of 40 nM and a Ki (nociceptin receptor) of 0.43 nM.

Work on {6‑guanidinopentyl}-Tyr-Tyr-Arg-X1 [Example 23 (N-α-6-guanidinopentyl-Tyr-Tyr-N-[(R)-1-(2-naphthyl)ethyl]-argininamide)] yielded a Ki (mu opioid receptor) of 59 nM and a Ki (nociceptin receptor) of 1.8 nM.

B2: Example 27 (N-α-6-guanidinohexyl-3,5-dimethyl-Tyr-3,5-dimethyl-Tyr-N-[(R)-1-(2-naphthyl)ethyl]-argininamide) (peptide)
chain: {6‑guanidinohexyl}-[3,5‑dimethyl‑Tyr]-[3,5‑dimethyl‑Tyr]-Arg-X1
SMILES: Cc1cc(C[C@H](NCCCCCCNC(=N)N)C(=O)N[C@@H](Cc2cc(C)c(O)c(C)c2)C(=O)N[C@@H](CCCNC(=N)N)C(=O)N[C@H](C)c2ccc3ccccc3c2)cc(C)c1O
Work on B2 yielded a Ki (mu opioid receptor) of 10 nM and a Ki (nociceptin receptor) of 0.6 nM.

B3: Example 25 (N-α-6-guanidinohexyl-3,5-dimethyl-Tyr-Tyr-N-[(R)-1-(2-naphthyl)ethyl]-argininamide) (peptide)
chain: {6‑guanidinohexyl}-[3,5‑dimethyl‑Tyr]-Tyr-Arg-X1
SMILES: Cc1cc(C[C@H](NCCCCCCNC(=N)N)C(=O)N[C@@H](Cc2ccc(O)cc2)C(=O)N[C@@H](CCCNC(=N)N)C(=O)N[C@H](C)c2ccc3ccccc3c2)cc(C)c1O
B3 was tested, and the Ki (mu opioid receptor) was 14 nM and the Ki (nociceptin receptor) was 0.9 nM.
